The values that follow come from US7422862B2, “Methods for identifying modulators of apoptosis” (The Burnham Institute, priority 2001, dated 2008).

One assay addresses T1, Bak (Homo sapiens, UniProt Q16611).
T1 sequence (Q16611 1-211): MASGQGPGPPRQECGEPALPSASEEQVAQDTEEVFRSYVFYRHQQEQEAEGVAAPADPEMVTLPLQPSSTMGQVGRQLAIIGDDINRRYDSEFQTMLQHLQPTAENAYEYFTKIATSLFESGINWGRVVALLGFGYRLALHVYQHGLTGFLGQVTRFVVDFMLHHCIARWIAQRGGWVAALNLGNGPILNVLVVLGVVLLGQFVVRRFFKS
Put plainly: Co-immunoprecipitation with Bcl-2 family proteins in HEK293T cells. Format: binding. Details: expressed in transfected cells; host or cells: HEK293T. The text has this: (§1) (A) HEK293T cells were transfected with pcDNA3-myc plasmids encoding Bax or other Bcl-2 family proteins with GFP, GFP-HN, or GFP-HN(C8P). Cell lysates were immunoprecipitated with polyclonal anti-GFP antibody. The immunoprecipitates or the lysates were blotted with anti-myc or anti-GFP antibodies, respectively. The slower migrating form of GFP seen in lane 1 (asterisk)represents an alternative form of GFP produced from the wild-type (control) p-EGFP-Cl plasmid (http://clonotech.com). (B) Testes of three-week-old mice were homogenized in lysis buffer (0.1% Triton X-100, 50 mM Tris-HCl, pH7.5, 1 mM EDTA, plus protease inhibitor cocktail). The lysates were immunoprecipitated with control rabbit serum or polyclonal anti-mouse Bax antibody. The immunoprecipitates or the lysates were subjected to electrophoresis in Tris/Tricine gels (16% T, 3% C), electroblotted to PVDF membrane, and immunoblotted with polyclonal anti-HN antibody or monoclonal anti-Bax antibody 6A7 (Trevigen). (C) The affinity (Kd) of Bax/HN interaction was measured by fluorescence polarization assay, using various concentrations of purified recombinant Bax and 40 nM rhodamine-conjugated HN peptide. Control peptide from CD40 is also shown (mean +Std Dev; n=3).
Furthermore, multiple Bcl-2 family proteins were surveyed for interactions with Humanin by coimmunoprecipitation experiments (FIG. 5A). […]

The next assay deals with Bax. The assay can be described thus: Bax-induced lethality in yeast. The class given is cell-based, S. cerevisiae. The settings on record: TAD-fusion polypeptide, galactose-induced Bax.
The next assay has as its target T2, BaxΔTM (Homo sapiens, UniProt Q07812).
T2 construct: a C-terminally truncated Bax protein (residues 1-169) (BaxΔTM); expressed in transfected cells; host or cells: HEK293T (lysates mixed in vitro)
Put plainly: Co-immunoprecipitation of BaxΔTM with GFP-TM(Bax). The class given is binding. The note with it: lysates pre-incubated with peptide. As to the method:
(A-B) Humanin peptide prevents STS-induced Bax translocation in vivo. Cos-7 cells were first transfected with GFP-Bax plasmids. After 24 hrs, untagged wild-type or C8P mutant Humanin peptides were introduced into cells using ChariotTM reagent, and 2 h later cells were treated with 1 μM STS. After 4 h, the percentage of cells with translocated Bax was determined (mean±SD; n=3) by confocal microscopy (A) and representative photomicrographs (B). (C) Wild-type or C8P mutant Humanin peptides were introduced into Cos7 cells using ChariotTM reagent. Cytosolic (C) and mitochondria-containing (M) fractions were isolated by differential centrifugation 23 and analyzed by immunoblotting using anti-Bax (top), Hsp60 (middle) (mitochondrial marker), or Tubulin (bottom) (cytosol marker) antibodies. (D) HN or mutant control double-strand siRNAs were transfected into SF268 cells. After 48 h, cells were cultured without (Control) or with 0.1 uM STS. After 24 hr, cells were fractionated and analyzed by immunoblotting as above. (E) Isolated mitochondria were mixed with 400 ng Bax protein, with or without preincubating Bax with 100 uM Humanin or Humanin(C8P) peptides for 10 min. After 3 h at 30° C., mitochondria were centrifuged and the resulting pellets (P) and supernatants (S) were analyzed by immunoblotting using anti-Cytochrome c (top), Hsp60 (middle), and Bax (bottom) antibodies. […]

Another assay addresses T3, endogenous Bax (Mus musculus, UniProt Q07813).
T3 construct: from tissue; host or cells: testes of three-week-old mice
The assay can be described thus: Co-immunoprecipitation of endogenous Humanin and Bax from mouse testis lysates. The class given is binding. The note with it: endogenous peptide and protein.
Excerpt: as §1, with “(C) The affinity (Kd) of Bax/HN interaction was measured by fluorescence polarization assay, using various concentrations of purified recombinant Bax and 40 nM rhodamine-conjugated HN peptide. Control peptide from CD40 is also shown (mean +Std Dev; n=3).” left out
A rabbit polyclonal antibody raised against Humanin peptide (P04, gift of Dr. Ikuo Nishimoto) was used to examine whether endogenous Humanin peptide interacts with endogenous Bax polypeptide. […] In addition, endogenous Humanin was determined to be a cytosolic protein, based on subcellular fractionation experiments.

T3 sequence (Q07813 whole entry): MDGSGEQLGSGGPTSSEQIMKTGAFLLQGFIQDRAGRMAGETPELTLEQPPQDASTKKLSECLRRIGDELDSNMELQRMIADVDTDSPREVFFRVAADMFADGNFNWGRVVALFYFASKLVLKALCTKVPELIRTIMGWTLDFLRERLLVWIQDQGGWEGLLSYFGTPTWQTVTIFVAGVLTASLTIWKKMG
T2 sequence (Q07812 1-169, stated change not applied): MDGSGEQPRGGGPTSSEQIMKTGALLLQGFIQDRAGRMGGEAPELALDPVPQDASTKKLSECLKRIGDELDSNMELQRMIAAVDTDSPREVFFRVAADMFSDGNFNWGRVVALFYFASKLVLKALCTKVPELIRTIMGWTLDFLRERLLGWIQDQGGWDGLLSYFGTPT
T2 sequence (Q07812 170-192 partner limits assumed): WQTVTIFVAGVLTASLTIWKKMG

Regarding “GFP-HN: Wild-type full-length Humanin fused to Green Fluorescent Protein”, the “co-immunoprecipitation with Bak” value in the assay with Bak is on record as “did not co-immunoprecipitate”.
With “Humanin: 24 amino acid polypeptide, cytosolic form of human Humanin (SEQ ID NO:2); used as synthetic peptide or expressed fusion”, in the assay on Bax, the “rescue of yeast from Bax-induced lethality” value is “rescued”. Moreover, the “interaction of BaxΔTM with GFP-TM” value with BaxΔTM is “immunoprecipitated”. For the same substance, the “co-immunoprecipitation with Bax from mouse testis lysates” value with endogenous Bax was “co-immunoprecipitated”.
